We go through 2 molecules from paper doi:10.1101/2021.10.11.463801.

A word on the Kd: it is the equilibrium constant for the complex coming apart. Read a low Kd as a tighter complex.

The target of the assay is DLIC1[388-523] (human). Kind of assay: ITC. (In ITC the heat of successive injections is recorded.)

B1: JIP4[1-103] (domain or fragment)
chain: MELEDGVVYQEEPGGSGAVMSERVSGLAGSIYREFERLIGRYDEEVVKELMPLVVAVLENLDSVFAQDQEHQVELELLRDDNEQLITQYEREKALRKHAEEKF
B1 showed a Kd of 4000 nM and a stoichiometry N (DLIC1-C molecules per RH1 dimer) of 2.

B2: JIP3[1-108] (domain or fragment)
chain: MMEIQMDEGGGVVVYQDDYCSGSVMSERVSGLAGSIYREFERLIHCYDEEVVKELMPLVVNVLENLDSVLSENQEHEVELELLREDNEQLLTQYEREKALRRQAEEKF
On to B2, for which the Kd stood at 1000 nM and the stoichiometry N (DLIC1-C molecules per RH1 dimer) was 2.
